Measurements published in patent US20030040044A1.
Each block holds one substance with its values, some of them ahead of it.

Experiments:
[1] = molecular target: αvβ3 and αvβ5 integrins together on human cells (M21, A375S2, HUVEC) (human) (UniProt P06756)
[2] = molecular target: αVβ3 integrin on human cells (human) (UniProt P06756)
[3] = molecular target: αVβ3 integrin on human cells (human) (UniProt P06756); remark: listed apart in the source
[4] = molecular target: αVβ3 integrin on human cells (human) (UniProt P06756); test: binding of radiolabelled LM609 to A375S2 cells, Bmax, n = 2
[5] = molecular target: αVβ5 integrin on human cells (human) (UniProt P06756)
[6] = molecular target: αVβ5 integrin on human cells (human) (UniProt P06756); remark: listed apart in the source
[7] = molecular target: αVβ5 integrin on human cells (human) (UniProt P06756); test: binding of radiolabelled P1F6 to M21 cells, Bmax, n = 2
[8] = molecular target: αVβ5 integrin on human cells (human) (UniProt P06756); test: binding of radiolabelled P1F6 to HT-29 cells, Bmax, n = 1
[9] = molecular target: αVβ5 integrin on human cells (human) (UniProt P06756); test: binding of radiolabelled P1F6 to A375S2 cells, Bmax, n = 4
[10] = molecular target: human αVβ3 integrin, purified (human) (UniProt P06756); test: saturation binding on αvβ3 coated plate (ELISA), non-linear regression, n = 6
[11] = molecular target: human αVβ3 integrin, purified (human) (UniProt P06756); test: ELISA on αVβ3-coated plates, fifty percent maximal binding

Substance: Human IgG (polyclonal serum or antibody)
Adhesion (%) of HUVEC to vitronectin (% of adhesion without antibody) [1]: 96.3

Substance: LM609 (antibody)
Adhesion (%) of HUVEC to fibrin (% of adhesion without antibody) [2]: 48.1
Adhesion (%) of HUVEC to fibrinogen (% of adhesion without antibody) [2]: 14.3
Adhesion (%) of HUVEC to gelatin (% of adhesion without antibody) [2]: 36.5
Adhesion (%) of HUVEC to vitronectin (% of adhesion without antibody) [2]: 26.3
Adhesion (%) of A375S.2 cells to fibrin (% of adhesion without antibody) [3]: 50
Adhesion (%) of A375S.2 cells to fibrinogen (% of adhesion without antibody) [3]: 14
Adhesion (%) of A375S.2 cells to gelatin (% of adhesion without antibody) [3]: 25.2
Adhesion (%) of A375S.2 cells to vitronectin (% of adhesion without antibody) [3]: 42.1
Receptors per cell (receptors per cell) [4]: 300000

Substance: ReoPro (Fab)
Kd [10]: 0.25 nM

Other lines, results leading:

Adhesion (%) of HUVEC to vitronectin (% of adhesion without antibody) [5]: 39.8
Adhesion (%) of A375S.2 cells to vitronectin (% of adhesion without antibody) [6]: 28.5
Receptors per cell (receptors per cell) [7]: 44000
Receptors per cell (receptors per cell) [8]: 73000
Receptors per cell (receptors per cell) [9]: 70000
Substance: P1F6 (antibody)

EC50 [11]: 0.07 µg/mL
Substance: c7E3 IgG (antibody)
